What was measured:
Conditions in all cases: 20 nM; 72 h
MCF10A [1] = assay: one-nucleolus phenotype percent effect (relative to siNT 0% and siNOL11 100%); higher = more cells with one nucleolus (ribosome biogenesis inhibition)
Description: (§1)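 After 72 h, cells were fixed and stained with Hoechst and anti-fibrillarin, and nucleoli per nucleus were counted with CellProfiler. Values are plate-adjusted percent effect for the one-nucleolus and 5+ nucleoli phenotypes, normalised to siNT (0%) and to the positive controls siNOL11 or siKIF11 (100%), as the mean of biological triplicates. Percent viability is the nuclei count relative to siNT.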

MCF10A [2] = assay: 5+ nucleoli phenotype percent effect (relative to siNT 0% and siKIF11 100%); higher = more cells with five or more nucleoli
Description: as §1

MCF10A [3] = assay: percent viability (nuclei count relative to siNT); higher = more viable cells
Description: as §1

Sequence | one-nucleolus phenotype percent effect (MCF10A [1]) | 5+ nucleoli phenotype percent effect (MCF10A [2]) | percent viability (MCF10A [3])
AAGCCCUUACCCCAAAAAGCAU [hsa-miR-129-2-3p] | 24% | -31.7% | 64.7%
AAGCCCUUACCCCAAAAAGUAU [hsa-miR-129-1-3p] | 23.6% | -37.4% | 54.9%
AAGCCUCUGUCCCCACCCCAG [hsa-miR-6819-3p] | -17.6% | -5.25% | 70.8%
AAGCCUGCCCGGCUCCUCGGG [hsa-miR-596] | -4% | -11.4% | 74.8%
AAGCGACCAUGAUGUAACUUCA [hsa-miR-4670-5p] | 14% | -4.37% | 49.2%
AAGCUCAGGUUUGAGAACUGCUGA [hsa-miR-6854-5p] | 18.3% | -24.5% | 57.3%
AAGCUGCCAGUUGAAGAACUGU [hsa-miR-22-3p] | -3.65% | 8.61% | 35.3%
AAGCUUUUUGCUCGAAUUAUGU [hsa-miR-208b-5p] | -24.2% | -1.23% | 108%
AAGGAACCAGAAAAUGAGAAGU [hsa-miR-3914] | -40.6% | 57.2% | 111%
AAGGCAGGGCCCCCGCUCCCC [hsa-miR-940] | 45.5% | -29.5% | 12.8%
AAGGCCCGGGCUUUCCUCCCAG [hsa-miR-4747-3p] | 31.7% | -14.1% | 29.2%
AAGGCCUUUCUGAACCUUCAGA [hsa-miR-3142] | 19.5% | -15% | 23.2%
AAGGGAAGAUGGUGACCAC [hsa-miR-9500] | 15.1% | -15.3% | 26%
AAGGGACAGGGAGGGUCGUGG [hsa-miR-7845-5p] | -13.3% | 2.91% | 60.5%
AAGGGAGGAGGAGCGGAGGGGCCCU [hsa-miR-4739] | 21.1% | 4.78% | 19.6%
AAGGGCUUCCUCUCUGCAGGAC [hsa-miR-3158-3p] | 32.8% | -9.95% | 12.1%
AAGGGGCAGGGACGGGUGGCCC [hsa-miR-6743-5p] | 1.94% | 0.112% | 29.4%
AAGGGGCUGGGGGAGCACA [hsa-miR-6085] | 33.3% | -17.6% | 22%

Sequence | one-nucleolus phenotype percent effect (MCF10A [1]) | 5+ nucleoli phenotype percent effect (MCF10A [2]) | percent viability (MCF10A [3])
AAGGGGGAAGGAAACAUGGAGA [hsa-miR-4716-3p] | 21.6% | -6.04% | 21.3%
AAGGUAUUGUUCAGACUUAUGA [hsa-miR-4678] | 5.33% | -18% | 38.9%
AAGGUUUGGAUAGAUGCAAUA [hsa-miR-4464] | 6.58% | -24.5% | 29.7%
AAGUAGUUGGUUUGUAUGAGAUGGUU [hsa-miR-1244] | 12.3% | -0.297% | 44.6%
AAGUCCCACUAAUGCCAGC [hsa-miR-5588-3p] | 6.67% | -3.98% | 42.5%
AAGUCCUGCUUCUGUUGCAG [hsa-miR-6838-3p] | -6.74% | -28.6% | 56.4%
AAGUGAUCUAAAGGCCUACAU [hsa-miR-1245a] | 10.4% | -34% | 48.6%
AAGUGCCCCCACAGUUUGAGUGC [hsa-miR-371b-3p] | -25.4% | 68.5% | 84.2%
AAGUGCCGCCAUCUUUUGAGUGU [hsa-miR-371a-3p] | -8.12% | -0.0057% | 45.8%
AAGUGCCUCCUUUUAGAGUGUU [hsa-miR-519e-3p] | -10.9% | -1.33% | 40.9%
AAGUGCUGUCAUAGCUGAGGUC [hsa-miR-512-3p] | -17.8% | 45.1% | 69.7%
AAGUGCUUCCUUUUAGAGGGUU [hsa-miR-520f] | 4.79% | 26.9% | 46.9%
AAGUGUGCAGGGCACUGGU [hsa-miR-648] | 40.5% | -33.3% | 20.9%
AAGUUCUGUUAUACACUCAGGC [hsa-miR-148b-5p] | 11.3% | -28.2% | 37.1%
AAGUUGGCUGCAGUUAAGGUGG [hsa-miR-4715-5p] | -2.6% | -13.4% | 22.1%
AAUAAAGUUCAUGUAUGGCAA [hsa-miR-5590-3p] | -1.04% | -19% | 61.8%
AAUAAUACAUGGUUGAUCUUU [hsa-miR-369-3p] | -9.36% | 11.7% | 162%
AAUAAUAUCACAGUAGGUGU [hsa-miR-5692b] | -19.9% | 46.7% | 155%

Source: the supplement of paper PMC10899765
